Read-outs that look alike come from different tables or passages of the source.
Experiments:
Format in all cases: cell-based
HL-60(TB) = tested on: HL-60(TB)
K-562 = experiment: NCI60 in vitro screening, Leukemia
COLO 205 = experiment: NCI60 in vitro screening, Colon Cancer
HCT-15 = experiment: NCI60 in vitro screening, Colon Cancer
HT29 = experiment: NCI60 in vitro screening, Colon Cancer
SW-620 = experiment: NCI60 in vitro screening, Colon Cancer
SF-268 = experiment: NCI60 in vitro screening, CNS Cancer
SNB-19 = experiment: NCI60 in vitro screening, CNS Cancer
SNB-75 = experiment: NCI60 in vitro screening, CNS Cancer
SK-MEL-28 = experiment: NCI60 in vitro screening, Melanoma
SK-MEL-5 = experiment: NCI60 in vitro screening, Melanoma
OVCAR-3 = experiment: NCI60 in vitro screening, Ovarian Cancer
OVCAR-5 = experiment: NCI60 in vitro screening, Ovarian Cancer
A498 = experiment: NCI60 in vitro screening, Renal Cancer
SN12C = experiment: NCI60 in vitro screening, Renal Cancer
TK-10 = experiment: NCI60 in vitro screening, Renal Cancer
T-47D = experiment: NCI60 in vitro screening, Breast Cancer
MDA-MB-468 = experiment: NCI60 in vitro screening, Breast Cancer

B1: GMI: immunomodulatory protein from Ganoderma microsporum, amino acid sequence SEQ ID NO: 3, manufactured by Mycomagic Biotechnology Co., Ltd. (protein, listed as Ganoderma microsporum)
chain: MSDTALIFTLAWNVKQLAFDYTPNWGRGRPSSFIDTVTFPTVLTDKAYTYRVVVSGKDLGVRPSYAVESDGSQKINFLEYNSGYGIADTNTIQVYVIDPDTGNNFIVAQWN
HL-60(TB)
  TGI: >1.25E2
HL-60(TB); Log10 Concentration 0.1
  Percent Growth: 105%
HL-60(TB); Log10 Concentration 1.1
  Percent Growth: 105%
HL-60(TB); Log10 Concentration 2.1
  Percent Growth: 92%
HL-60(TB); Log10 Concentration −0.9
  Percent Growth: 99%
HL-60(TB); Log10 Concentration −1.9
  Percent Growth: 100%
HL-60(TB); one dose
  Growth Percent: 116.48%
K-562; K-562
  TGI: >1.25E2
K-562; K-562, Log10 Concentration 0.1
  Percent Growth: 101%
K-562; K-562, Log10 Concentration 1.1
  Percent Growth: 97%
K-562; K-562, Log10 Concentration 2.1
  Percent Growth: 90%
K-562; K-562, Log10 Concentration −0.9
  Percent Growth: 98%
K-562; K-562, Log10 Concentration −1.9
  Percent Growth: 96%
K-562; K-562, one dose
  Growth Percent: 125.37%
COLO 205; COLO 205
  TGI: >1.25E2
COLO 205; COLO 205, Log10 Concentration 0.1
  Percent Growth: 100%
COLO 205; COLO 205, Log10 Concentration 1.1
  Percent Growth: 95%
COLO 205; COLO 205, Log10 Concentration 2.1
  Percent Growth: 95%
COLO 205; COLO 205, Log10 Concentration −0.9
  Percent Growth: 98%
COLO 205; COLO 205, Log10 Concentration −1.9
  Percent Growth: 95%
COLO 205; COLO 205, one dose
  Growth Percent: 105.56%
HCT-15; HCT-15
  TGI: 5.26E1
HCT-15; HCT-15, Log10 Concentration 0.1
  Percent Growth: 94%
HCT-15; HCT-15, Log10 Concentration 1.1
  Percent Growth: 52%
HCT-15; HCT-15, Log10 Concentration 2.1
  Percent Growth: −31%
HCT-15; HCT-15, Log10 Concentration −0.9
  Percent Growth: 97%
HCT-15; HCT-15, Log10 Concentration −1.9
  Percent Growth: 97%
HCT-15; HCT-15, one dose
  Growth Percent: 33.64%
HCT-15; HCT-15, in µg/mL
  GI50: 1.31E1
HT29; HT29
  TGI: >1.25E2
HT29; HT29, Log10 Concentration 0.1
  Percent Growth: 98%
HT29; HT29, Log10 Concentration 1.1
  Percent Growth: 57%
HT29; HT29, Log10 Concentration 2.1
  Percent Growth: 22%
HT29; HT29, Log10 Concentration −0.9
  Percent Growth: 99%
HT29; HT29, Log10 Concentration −1.9
  Percent Growth: 100%
HT29; HT29, one dose
  Growth Percent: 28.36%
HT29; HT29, in µg/mL
  GI50: 1.95E1
SW-620; SW-620
  TGI: >1.25E2
SW-620; SW-620, Log10 Concentration 0.1
  Percent Growth: 102%
SW-620; SW-620, Log10 Concentration 1.1
  Percent Growth: 95%
SW-620; SW-620, Log10 Concentration 2.1
  Percent Growth: 53%
SW-620; SW-620, Log10 Concentration −0.9
  Percent Growth: 100%
SW-620; SW-620, Log10 Concentration −1.9
  Percent Growth: 102%
SW-620; SW-620, one dose
  Growth Percent: 87.57%
SF-268; SF-268
  TGI: >1.25E2
SF-268; SF-268, Log10 Concentration 0.1
  Percent Growth: 108%
SF-268; SF-268, Log10 Concentration 1.1
  Percent Growth: 52%
SF-268; SF-268, Log10 Concentration 2.1
  Percent Growth: 4%
SF-268; SF-268, Log10 Concentration −0.9
  Percent Growth: 101%
SF-268; SF-268, Log10 Concentration −1.9
  Percent Growth: 95%
SF-268; SF-268, one dose
  Growth Percent: 39.72%
SF-268; SF-268, in µg/mL
  GI50: 2.02E1
SNB-19; SNB-19
  TGI: 4.27E1
SNB-19; SNB-19, Log10 Concentration 0.1
  Percent Growth: 95%
SNB-19; SNB-19, Log10 Concentration 1.1
  Percent Growth: 66%
SNB-19; SNB-19, Log10 Concentration 2.1
  Percent Growth: −58%
SNB-19; SNB-19, Log10 Concentration −0.9
  Percent Growth: 98%
SNB-19; SNB-19, Log10 Concentration −1.9
  Percent Growth: 98%
SNB-19; SNB-19, one dose
  Growth Percent: 58.70%
SNB-19; SNB-19, in µg/mL
  GI50: 1.69E1
  LC50: 1.08E2
SNB-75; SNB-75
  TGI: 1.45E1
SNB-75; SNB-75, Log10 Concentration 0.1
  Percent Growth: 97%
SNB-75; SNB-75, Log10 Concentration 1.1
  Percent Growth: 5%
SNB-75; SNB-75, Log10 Concentration 2.1
  Percent Growth: −68%
SNB-75; SNB-75, Log10 Concentration −0.9
  Percent Growth: 101%
SNB-75; SNB-75, Log10 Concentration −1.9
  Percent Growth: 95%
SNB-75; SNB-75, one dose
  Growth Percent: −45.73%
SNB-75; SNB-75, in µg/mL
  GI50: 4.04E0
  LC50: 7.14E1
SK-MEL-28; SK-MEL-28
  TGI: >1.25E2
SK-MEL-28; SK-MEL-28, Log10 Concentration 0.1
  Percent Growth: 110%
SK-MEL-28; SK-MEL-28, Log10 Concentration 1.1
  Percent Growth: 98%
SK-MEL-28; SK-MEL-28, Log10 Concentration 2.1
  Percent Growth: 72%
SK-MEL-28; SK-MEL-28, Log10 Concentration −0.9
  Percent Growth: 103%
SK-MEL-28; SK-MEL-28, Log10 Concentration −1.9
  Percent Growth: 98%
SK-MEL-28; SK-MEL-28, one dose
  Growth Percent: 106.96%
SK-MEL-5; SK-MEL-5
  TGI: 4.26E1
SK-MEL-5; SK-MEL-5, Log10 Concentration 0.1
  Percent Growth: 103%
SK-MEL-5; SK-MEL-5, Log10 Concentration 1.1
  Percent Growth: 94%
SK-MEL-5; SK-MEL-5, Log10 Concentration 2.1
  Percent Growth: −83%
SK-MEL-5; SK-MEL-5, Log10 Concentration −0.9
  Percent Growth: 101%
SK-MEL-5; SK-MEL-5, Log10 Concentration −1.9
  Percent Growth: 101%
SK-MEL-5; SK-MEL-5, one dose
  Growth Percent: 83.26%
SK-MEL-5; SK-MEL-5, in µg/mL
  GI50: 2.22E1
  LC50: 8.17E1
OVCAR-3; OVCAR-3
  TGI: >1.25E2
OVCAR-3; OVCAR-3, Log10 Concentration 0.1
  Percent Growth: 108%
OVCAR-3; OVCAR-3, Log10 Concentration 1.1
  Percent Growth: 85%
OVCAR-3; OVCAR-3, Log10 Concentration 2.1
  Percent Growth: 26%
OVCAR-3; OVCAR-3, Log10 Concentration −0.9
  Percent Growth: 102%
OVCAR-3; OVCAR-3, Log10 Concentration −1.9
  Percent Growth: 99%
OVCAR-3; OVCAR-3, one dose
  Growth Percent: 94.57%
OVCAR-3; OVCAR-3, in µg/mL
  GI50: 4.90E1
OVCAR-5; OVCAR-5
  TGI: >1.25E2
OVCAR-5; OVCAR-5, Log10 Concentration 0.1
  Percent Growth: 98%
OVCAR-5; OVCAR-5, Log10 Concentration 1.1
  Percent Growth: 89%
OVCAR-5; OVCAR-5, Log10 Concentration 2.1
  Percent Growth: 66%
OVCAR-5; OVCAR-5, Log10 Concentration −0.9
  Percent Growth: 100%
OVCAR-5; OVCAR-5, Log10 Concentration −1.9
  Percent Growth: 101%
OVCAR-5; OVCAR-5, one dose
  Growth Percent: 107.85%
A498; A498
  TGI: 7.07E1
A498; A498, Log10 Concentration 0.1
  Percent Growth: 114%
A498; A498, Log10 Concentration 1.1
  Percent Growth: 108%
A498; A498, Log10 Concentration 2.1
  Percent Growth: −35%
A498; A498, Log10 Concentration −0.9
  Percent Growth: 102%
A498; A498, Log10 Concentration −1.9
  Percent Growth: 107%
A498; A498, one dose
  Growth Percent: 98.16%
A498; A498, in µg/mL
  GI50: 3.17E1
SN12C
  TGI: >1.25E2
SN12C; Log10 Concentration 0.1
  Percent Growth: 99%
SN12C; Log10 Concentration 1.1
  Percent Growth: 81%
SN12C; Log10 Concentration 2.1
  Percent Growth: 30%
SN12C; Log10 Concentration −0.9
  Percent Growth: 104%
SN12C; Log10 Concentration −1.9
  Percent Growth: 102%
SN12C; in µg/mL
  GI50: 5.05E1
SN12C; one dose
  Growth Percent: 74.30%
TK-10; TK-10
  TGI: 4.91E0
TK-10; TK-10, Log10 Concentration 0.1
  Percent Growth: 106%
TK-10; TK-10, Log10 Concentration 1.1
  Percent Growth: −72%
TK-10; TK-10, Log10 Concentration 2.1
  Percent Growth: −100%
TK-10; TK-10, Log10 Concentration −0.9
  Percent Growth: 98%
TK-10; TK-10, Log10 Concentration −1.9
  Percent Growth: 96%
TK-10; TK-10, one dose
  Growth Percent: −92.37%
TK-10; TK-10, in µg/mL
  GI50: 2.57E0
  LC50: 9.38E0
T-47D
  TGI: >1.25E2
T-47D; Log10 Concentration 0.1
  Percent Growth: 88%
T-47D; Log10 Concentration 1.1
  Percent Growth: 43%
T-47D; Log10 Concentration 2.1
  Percent Growth: 13%
T-47D; Log10 Concentration −0.9
  Percent Growth: 96%
T-47D; Log10 Concentration −1.9
  Percent Growth: 101%
T-47D; in µg/mL
  GI50: 8.63E0
T-47D; one dose
  Growth Percent: 28.25%
MDA-MB-468; MDA-MB-468
  TGI: 1.18E1
MDA-MB-468; MDA-MB-468, Log10 Concentration 0.1
  Percent Growth: 115%
MDA-MB-468; MDA-MB-468, Log10 Concentration 1.1
  Percent Growth: −3%
MDA-MB-468; MDA-MB-468, Log10 Concentration 2.1
  Percent Growth: −24%
MDA-MB-468; MDA-MB-468, Log10 Concentration −0.9
  Percent Growth: 100%
MDA-MB-468; MDA-MB-468, Log10 Concentration −1.9
  Percent Growth: 104%
MDA-MB-468; MDA-MB-468, one dose
  Growth Percent: 50.90%
MDA-MB-468; MDA-MB-468, in µg/mL
  GI50: 4.45E0
